Measured values reported in patent US20230212549A1 (3B PHARMACEUTICALS, published 2023).
Numbered stars: 1 amine (or outer) side, 2 acyl side, 3 side chain; on linkers, the order of the positions; unused ones are H or OH. Bridge positions count the residues as written; N and C are the ends. Square brackets hold non-standard residues; d marks the D form. Primed or numbered codes have the meaning given here. * marks the point of attachment. tMeBn(LuDOTA-AET) = 1,3,5-trimethylbenzylidene (from 1,3,5-tris(bromomethyl)benzene) bridge with two thioethers to the Cys, its third CH2 carries AET (2-aminoethanethiol, attached through S), whose amine is acylated by DOTA complexing lutet, O=C([O-])CN1CCN(CC(=O)[O-])CCN(CC(=O)NCCSCc2cc(C[*:1])cc(C[*:2])c2)CCN(CC(=O)[O-])CC1.[Lu+3]; Ttds″ = 1,13-diamino-4,7,10-trioxatridecan-succinamic acid spacer, O=C(CCC(=O)[*:2])NCCCOCCOCCOCCCN[*:1]; TBMB(SCH2CH2NH-DOTA) = O=C(O)CN1CCN(CC(=O)O)CCN(CC(=O)NCCSCc2cc(C[*:1])cc(C[*:2])c2)CCN(CC(=O)O)CC1; Ttds = 1,13-diamino-4,7,10-trioxatridecan-succinamic acid, O=C(CCC(=O)[*:2])NCCCOCCOCCOCCCN[*:1]; Ttds(4) = spacer between chelator and peptide, O=C(CCC(=O)[*:2])NCCCOCCOCCOCCCN[*:1]; N4Ac = 6-Carboxy-1,4,8,11-tetraazaundecane, an N4-chelator, NCCNCC(CNCCN)C(=O)*; DOTA = O=C(O)CN1CCN(CC(=O)O)CCN(CC(=O)*)CCN(CC(=O)O)CC1; nBu‑CAyl = n-butylaminocarbonyl, CCCCNC(=O)*; mXylylene = c1cc(C[*:1])cc(C[*:2])c1; Pentanesulfonyl = CCCCCS(=O)(=O)*; AF488 = Alexa Fluor 488 label; Nle = CCCC[C@H](N)C(=O)O; Hexanoyl = CCCCCC(=O)*; Ahx = NCCCCCC(=O)O; GABA = NCCCC(=O)O; Sar = CNCC(=O)O

T1: recombinant human PREP (R&D systems, #4308-SE) (human, UniProt P48147 1-710)
T1 sequence: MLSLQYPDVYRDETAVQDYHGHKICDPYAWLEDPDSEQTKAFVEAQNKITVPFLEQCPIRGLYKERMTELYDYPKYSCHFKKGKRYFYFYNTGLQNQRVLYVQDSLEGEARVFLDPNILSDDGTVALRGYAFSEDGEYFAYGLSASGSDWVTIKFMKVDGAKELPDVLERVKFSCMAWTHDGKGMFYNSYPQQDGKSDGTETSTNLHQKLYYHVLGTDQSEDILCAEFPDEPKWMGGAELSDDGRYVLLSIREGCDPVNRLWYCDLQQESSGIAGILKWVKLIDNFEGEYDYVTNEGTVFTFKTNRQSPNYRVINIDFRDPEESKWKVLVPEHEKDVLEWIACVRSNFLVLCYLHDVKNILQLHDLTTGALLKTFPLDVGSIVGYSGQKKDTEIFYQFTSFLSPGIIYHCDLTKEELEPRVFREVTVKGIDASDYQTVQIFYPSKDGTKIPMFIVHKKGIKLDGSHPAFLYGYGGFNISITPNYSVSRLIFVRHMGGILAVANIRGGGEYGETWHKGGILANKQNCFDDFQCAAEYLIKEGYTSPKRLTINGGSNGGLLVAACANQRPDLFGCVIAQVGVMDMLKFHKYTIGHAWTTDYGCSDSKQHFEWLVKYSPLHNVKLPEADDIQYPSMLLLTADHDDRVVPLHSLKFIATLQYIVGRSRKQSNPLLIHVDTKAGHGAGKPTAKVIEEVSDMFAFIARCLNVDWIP


Experiments:
[1] = target: T2, Recombinant human FAP (R&D systems, #3715-SE) (human, UniProt Q12884 26-760); assay: cell-based or functional assay
[2] = target: T3, human fibroblast activation protein (FAP) on WI-38 fibroblasts (human, UniProt Q12884 1-760); assay: competitive FACS, WI-38 cells, Cy5-labeled peptide as competitor
T3 construct: FAP-expressing human WI-38 fibroblasts (ECACC)

[3] = target: T1, recombinant human PREP (R&D systems, …); assay: cell-based or functional assay
[4] = target: Recombinant human DPP4 (R&D systems, #9168-SE) (human, UniProt P27487 29-766); assay: cell-based or functional assay
Recombinant human DPP4 (R&D systems, #9168-SE), sequence (P27487 29-766 limits assumed): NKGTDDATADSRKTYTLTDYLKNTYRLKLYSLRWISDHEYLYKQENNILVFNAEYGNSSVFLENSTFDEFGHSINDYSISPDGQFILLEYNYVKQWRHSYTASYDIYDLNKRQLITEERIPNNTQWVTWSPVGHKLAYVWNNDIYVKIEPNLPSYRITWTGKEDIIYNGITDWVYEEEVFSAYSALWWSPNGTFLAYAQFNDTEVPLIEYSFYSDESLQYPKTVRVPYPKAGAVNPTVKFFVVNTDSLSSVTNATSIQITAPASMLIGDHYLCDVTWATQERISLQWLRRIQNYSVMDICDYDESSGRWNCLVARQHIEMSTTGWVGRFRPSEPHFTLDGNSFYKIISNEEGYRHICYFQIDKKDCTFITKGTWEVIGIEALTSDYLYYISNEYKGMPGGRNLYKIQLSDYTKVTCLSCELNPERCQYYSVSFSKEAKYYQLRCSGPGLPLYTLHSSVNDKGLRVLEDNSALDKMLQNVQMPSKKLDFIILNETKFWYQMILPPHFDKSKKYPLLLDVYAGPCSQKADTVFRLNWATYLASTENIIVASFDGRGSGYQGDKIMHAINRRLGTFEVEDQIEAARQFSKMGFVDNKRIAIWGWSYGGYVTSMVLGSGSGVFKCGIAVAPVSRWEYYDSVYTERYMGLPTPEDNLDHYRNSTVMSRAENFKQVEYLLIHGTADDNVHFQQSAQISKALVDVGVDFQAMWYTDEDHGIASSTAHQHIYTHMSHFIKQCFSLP

[5] = target: T2, Recombinant human FAP (R&D systems, …); assay: SPR (Biacore T200), FAP captured on anti-FAP antibody, single cycle kinetics

| Binder | pIC50 Category (Activity) [1] | pIC50 Category (FACS) [2] | pIC50 (PREP) [3] | pIC50 (DPP4) [4] | pKD Category [5] |
| --- | --- | --- | --- | --- | --- |
| Hexanoyl-CPPTQFCD[GABA]R[Ttds″]K(AF488)-NH2 (linker 1-7 via tMeBn(LuDOTA-AET); not fully specified (residue 1); printed as Hex-[Cys(tMeBn(LuDOTA-AET))-Pro-Pro-Thr-Gln-Phe-Cys]-Asp-Gab-Arg-Ttds-Lys(AF488)-NH2; also: DOTA complexing lutetium, also called 3BP-4372) [Hex-[Cys(tMeBn(LuDOTA-AET))-Pro-Pro-Thr-Gln-Phe-Cys]-Asp-Gab-Arg-Ttds-Lys(AF488)-NH2] | > 8 pIC50 | > 8 pIC50 | – | – | – |
| Hexanoyl-CPPTQFCD-NH2 (linker 1-7 via tMeBn(H-O2Oc-AET), also called 3BP-4003) [Hex-[Cys-(tMeBn(H-O2Oc-AET))-Pro-Pro-Thr-Gln-Phe-Cys]-Asp-NH2] | > 8 pIC50 | > 8 pIC50 | – | – | – |
| Hexanoyl-CPPTQFC-NH2 (linker 1-7 via mXylylene) [Hex-[Cys(3MeBn)-Pro-Pro-Thr-Gln-Phe-Cys]-NH2] | – | – | < 6 pIC50 | < 6 pIC50 | – |
| Pentanesulfonyl-CPPTQFCD-NH2 (linker 1-7 via tMeBn(InDOTA-PP); also: In complex of DOTA (InDOTA), also called 3BP-3717) [Pentyl-SO2-[Cys(tMeBn(InDOTA-PP))-Pro-Pro-Thr-Gln-Phe-Cys]-Asp-NH2] | > 8 pIC50 | > 8 pIC50 | – | – | > 8 pKD |
| Hexanoyl-CPPTQFCG-OH (linker 1-7 via tMeBn(InDOTA-AET); also: In complex (InDOTA), also called 3BP-3714) [Hex-[Cys(tMeBn(InDOTA-AET))-Pro-Pro-Thr-Gln-Phe-Cys]-Gly-OH] | > 8 pIC50 | > 8 pIC50 | – | – | > 8 pKD |
| {nBu‑CAyl}-C[Sar]PTQFC-OH (linker 1-7 via TBMB(SCH2CH2NH-DOTA); SMILES CCCCNC(=O)N[C@H]1CSCc2cc(CSCCNC(=O)CN3CCN(CC(=O)O)CCN(CC(=O)O)CCN(CC(=O)O)CC3)cc(c2)CSC[C@@H](C(=O)O)NC(=O)[C@H](Cc2ccccc2)NC(=O)[C@H](CCC(N)=O)NC(=O)[C@H]([C@@H](C)O)NC(=O)[C@@H]2CCCN2C(=O)CN(C)C1=O, also called 3BP-4607) [nBu-CAyl-[Cys(tMeBn(DOTA-AET))-Nmg-Pro-Thr-Gln-Phe-Cys]-OH] | > 8 pIC50 | > 8 pIC50 | – | – | – |
| Hexanoyl-CPPTEFCDHFRD[Ttds″]K(DOTA)-NH2 (linker 1-7 via mXylylene; SMILES CCCCCC(=O)N[C@H]1CSCc2cccc(c2)CSC[C@@H](C(=O)N[C@@H](CC(=O)O)C(=O)N[C@@H](Cc2c[nH]cn2)C(=O)N[C@@H](Cc2ccccc2)C(=O)N[C@@H](CCCNC(=N)N)C(=O)N[C@@H](CC(=O)O)C(=O)NCCCOCCOCCOCCCNC(=O)CCC(=O)N[C@@H](CCCCNC(=O)CN2CCN(CC(=O)O)CCN(CC(=O)O)CCN(CC(=O)O)CC2)C(N)=O)NC(=O)[C@H](Cc2ccccc2)NC(=O)[C@H](CCC(=O)O)NC(=O)[C@H]([C@@H](C)O)NC(=O)[C@@H]2CCCN2C(=O)[C@@H]2CCCN2C1=O) [Hex-[Cys(3MeBn)-Pro-Pro-Thr-Glu-Phe-Cys]-Asp-His-Phe-Arg-Asp-Ttds-Lys(DOTA)-NH2] | – | – | < 6 pIC50 | < 6 pIC50 | > 8 pKD |
| N4Ac-[Ttds″][Nle]CPPTEFC-OH (linker 3-9 via mXylylene; SMILES CCCC[C@H](NC(=O)CCC(=O)NCCCOCCOCCOCCCNC(=O)C(CNCCN)CNCCN)C(=O)N[C@H]1CSCc2cccc(c2)CSC[C@@H](C(=O)O)NC(=O)[C@H](Cc2ccccc2)NC(=O)[C@H](CCC(=O)O)NC(=O)[C@H]([C@@H](C)O)NC(=O)[C@@H]2CCCN2C(=O)[C@@H]2CCCN2C1=O, also called 3BP-4161) [N4Ac-Ttds-Nle-[Cys-(3MeBn)-Pro-Pro-Thr-Glu-Phe-Cys]-OH] | > 8 pIC50 | > 8 pIC50 | – | – | > 8 pKD |
| Hexanoyl-C[Sar]PTQFC-OH (linker 1-7 via tMeBn(InDOTA-AET); not fully specified (residue 1); printed as Hex--[C(tMeBn(InDOTA--AET))--Nmg-PTQFC]-OH; also: DOTA complexing indium, also called 3BP-3716) [Hex-[Cys(tMeBn(InDOTA-AET))-Nmg-Pro-Thr-Gln-Phe-Cys]-OH] | > 8 pIC50 | > 8 pIC50 | – | – | > 8 pKD |
| {DOTA}-[Ttds(4)][Nle]CPPTEFCDHFRD-NH2 (linker 3-9 via mXylylene; SMILES CCCC[C@H](NC(=O)CCC(=O)NCCCOCCOCCOCCCNC(=O)CN1CCN(CC(=O)O)CCN(CC(=O)O)CCN(CC(=O)O)CC1)C(=O)N[C@H]1CSCc2cccc(c2)CSC[C@@H](C(=O)N[C@@H](CC(=O)O)C(=O)N[C@@H](Cc2c[nH]cn2)C(=O)N[C@@H](Cc2ccccc2)C(=O)N[C@@H](CCCNC(=N)N)C(=O)N[C@@H](CC(=O)O)C(N)=O)NC(=O)[C@H](Cc2ccccc2)NC(=O)[C@H](CCC(=O)O)NC(=O)[C@H]([C@@H](C)O)NC(=O)[C@@H]2CCCN2C(=O)[C@@H]2CCCN2C1=O) [DOTA-Ttds-Nle-[Cys(3MeBn)-Pro-Pro-Thr-Glu-Phe-Cys]-Asp-His-Phe-Arg-Asp-NH2] | – | – | < 6 pIC50 | < 6 pIC50 | > 8 pKD |
| Hexanoyl-CPPTQFCD[Ttds″]K(DOTA)-NH2 (linker 1-7 via TBMB(SCH2CH2NH-DOTA); not fully specified (residue 1); printed as Hex-[Cys(tMeBn(DOTA-AET))-Pro-Pro-Thr-Gln-Phe-Cys]-Asp-Ttds-Lys(DOTA)-NH2, also called 3BP-4391) [Hex-[Cys(tMeBn(DOTA-AET))-Pro-Pro-Thr-Gln-Phe-Cys]-Asp-Ttds-Lys(DOTA)-NH2] | > 8 pIC50 | > 8 pIC50 | – | – | – |
| Hexanoyl-CPPTQFC-OH (bridge 1-7; not fully specified (bridges); printed as Hex-[Cys(tMeBn(DOTA-AET))-Pro-Pro-Thr-Gln-Phe-Cys]-OH; also: DOTA-AET attached to tMeBn scaffold) [Hex-[Cys(tMeBn(DOTA-AET))-Pro-Pro-Thr-Gln-Phe-Cys]-OH] | – | – | < 6 pIC50 | < 6 pIC50 | – |
| {nBu‑CAyl}-C[Sar]PTQFC-NH2 (linker 1-7 via TBMB(SCH2CH2NH-DOTA); SMILES CCCCNC(=O)N[C@H]1CSCc2cc(CSCCNC(=O)CN3CCN(CC(=O)O)CCN(CC(=O)O)CCN(CC(=O)O)CC3)cc(c2)CSC[C@@H](C(N)=O)NC(=O)[C@H](Cc2ccccc2)NC(=O)[C@H](CCC(N)=O)NC(=O)[C@H]([C@@H](C)O)NC(=O)[C@@H]2CCCN2C(=O)CN(C)C1=O, also called 3BP-4621) [nBu-CAyl-[Cys(tMeBn(DOTA-AET))-Nmg-Pro-Thr-Gln-Phe-Cys]-NH2] | > 8 pIC50 | > 8 pIC50 | – | – | – |
| H-[Ahx][Ttds][Nle]CPPTQFCD-NH2 (linker 4-10 via mXylylene; SMILES CCCC[C@H](NC(=O)CCC(=O)NCCCOCCOCCOCCCNC(=O)CCCCCN)C(=O)N[C@H]1CSCc2cccc(c2)CSC[C@@H](C(=O)N[C@@H](CC(=O)O)C(N)=O)NC(=O)[C@H](Cc2ccccc2)NC(=O)[C@H](CCC(N)=O)NC(=O)[C@H]([C@@H](C)O)NC(=O)[C@@H]2CCCN2C(=O)[C@@H]2CCCN2C1=O, also called 3BP-3980) [H-Ahx-Ttds-Nle-[Cys-(3MeBn)-Pro-Pro-Thr-Gln-Phe-Cys]-Asp-NH2] | > 8 pIC50 | > 8 pIC50 | – | – | – |
| {DOTA}-[Ttds][Nle]CPPTQFCD[Ttds]K(DOTA)-NH2 (linker 3-9 via mXylylene; SMILES CCCC[C@H](NC(=O)CCC(=O)NCCCOCCOCCOCCCNC(=O)CN1CCN(CC(=O)O)CCN(CC(=O)O)CCN(CC(=O)O)CC1)C(=O)N[C@H]1CSCc2cccc(c2)CSC[C@@H](C(=O)N[C@@H](CC(=O)O)C(=O)NCCCOCCOCCOCCCNC(=O)CCC(=O)N[C@@H](CCCCNC(=O)CN2CCN(CC(=O)O)CCN(CC(=O)O)CCN(CC(=O)O)CC2)C(N)=O)NC(=O)[C@H](Cc2ccccc2)NC(=O)[C@H](CCC(N)=O)NC(=O)[C@H]([C@@H](C)O)NC(=O)[C@@H]2CCCN2C(=O)[C@@H]2CCCN2C1=O, also called 3BP-4393) [DOTA-Ttds-Nle-[Cys(3MeBn)-Pro-Pro-Thr-Gln-Phe-Cys]-Asp-Ttds-Lys(DOTA)-NH2] | > 8 pIC50 | > 8 pIC50 | – | – | – |
